Data from patent US20160075795A1 (Hoffmann-La Roche, published 2016).
Values belong to the binder of their own block, whether it stands above or below them.

Legend:
[1] = target: T1, membrane-bound human carcinoembryonic antigen (CEA) (human, UniProt P06731 35-685, GPI anchor at the C-terminus of the mature chain; heavily N-glycosylated. Neither can be carried in the letters.); assay: flow cytometry on MKN45 target cells, antibodies as IgG [top panel]
T1 construct: Target of the flow cytometry experiments; also called CEACAM-5; CD66e
T1 sequence: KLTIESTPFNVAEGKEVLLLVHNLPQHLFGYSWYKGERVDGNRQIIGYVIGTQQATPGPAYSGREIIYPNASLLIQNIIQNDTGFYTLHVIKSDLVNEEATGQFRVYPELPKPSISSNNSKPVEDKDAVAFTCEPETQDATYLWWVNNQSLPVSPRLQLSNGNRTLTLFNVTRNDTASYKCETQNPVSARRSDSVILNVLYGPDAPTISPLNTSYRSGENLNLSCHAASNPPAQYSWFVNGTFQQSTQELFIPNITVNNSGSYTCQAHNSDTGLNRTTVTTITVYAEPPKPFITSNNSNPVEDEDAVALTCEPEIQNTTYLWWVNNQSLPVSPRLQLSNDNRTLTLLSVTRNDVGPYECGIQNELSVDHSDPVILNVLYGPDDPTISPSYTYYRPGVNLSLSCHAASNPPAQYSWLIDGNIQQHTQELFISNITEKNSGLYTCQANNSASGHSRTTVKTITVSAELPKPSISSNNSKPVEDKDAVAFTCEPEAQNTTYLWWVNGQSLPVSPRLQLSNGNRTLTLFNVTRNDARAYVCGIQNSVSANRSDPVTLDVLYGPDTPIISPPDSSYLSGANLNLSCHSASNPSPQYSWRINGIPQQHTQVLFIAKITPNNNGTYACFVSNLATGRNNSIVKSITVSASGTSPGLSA

[2] = target: T2, huNABA-avi-his (human, biotinylated in vivo at the avi tag); assay: SPR (Biacore), immobilized NABA-avi-his; bivalent affinity column (bivalent construct not described)
T2 construct: immobilized on the Biacore chip; also called NABA-avi-his reagent; N-A1-B3-A2
T2 chain: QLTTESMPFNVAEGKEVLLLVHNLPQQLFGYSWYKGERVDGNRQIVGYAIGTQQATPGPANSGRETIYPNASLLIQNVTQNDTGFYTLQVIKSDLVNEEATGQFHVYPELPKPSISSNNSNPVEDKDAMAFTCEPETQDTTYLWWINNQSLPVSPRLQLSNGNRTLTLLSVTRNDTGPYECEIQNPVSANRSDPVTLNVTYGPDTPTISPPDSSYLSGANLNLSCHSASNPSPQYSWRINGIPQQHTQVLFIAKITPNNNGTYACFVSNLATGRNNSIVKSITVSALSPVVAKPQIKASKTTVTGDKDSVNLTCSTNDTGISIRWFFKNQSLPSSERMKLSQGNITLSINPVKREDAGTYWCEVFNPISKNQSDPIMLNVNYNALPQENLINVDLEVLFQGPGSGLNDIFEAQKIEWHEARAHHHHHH

[3] = target: T2, huNABA-avi-his; assay: SPR (Biacore), Fab over immobilized NABA-avi-his; monovalent affinity column
Experimental: For the exact analysis of the kinetic parameters, Fabs were purified from bacterial cultures. A 500 ml culture was inoculated and induced with 1 mM IPTG at an OD600 0.9. Bacteria were incubated at 25° C. overnight and harvested by centrifugation. After the incubation of the resuspended pellet for 20 min in 25 ml PPB buffer (30 mM Tris-HCl pH8, 1 mM EDTA, 20% sucrose), bacteria were centrifuged again and the supernatant was harvested. This incubation step was repeated once with 25 ml of a 5 mM MgSO₄ solution. The supernatants of both incubation steps were pooled, filtered and loaded on a IMAC column (His gravitrap, GE Healthcare). Subsequently, the column was washed with 40 volumes. After the elution (500 mM NaCl, 500 mM Imidazole, 20 mM NaH₂PO₄ pH 7.4) the eluate was re-buffered using PD 10 columns (GE Healthcare). The kinetic parameters of the purified Fabs were then studied by SPR-analysis in a dilution row that ranged from 200 nM to 6.25 nM.
Table 11, below, summarizes the affinity constants of the various affinity matured antibody sequences. The parental antibody PR1A3 is listed as well as several light chain and heavy chain combinations of matured and non matured sequences. All values were obtained by Biacore technology by measuring the association (kₒₙ) and dissociation (koff) rate constants of the various soluble antibody constructs in Fab format on a Biacore chip with immobilized NABA-avi-his reagent (SEQ ID NO 158) as the antigen. The affinity constant is labeled with KD.

[4] = target: T2, huNABA-avi-his; assay: SPR (Biacore); antigen not given, taken as huNABA-avi-his
[5] = target: T1, membrane-bound human carcinoembryonic …; assay: flow cytometry on CEA-positive MKN45 target cells, antibodies as IgG [bottom panel]

B2: 1C8 Fab (hc/wt) (Fab, V domains shown)
VH: QVQLVQSGSELKKPGASVKVSCKASGYTFTEFGMNWVRQAPGQGLEWMGWINTKTGEATYVEEFKGRFVFSLDTSVSTAYLQISSLKAEDTAVYYCARWDFYHYVEAMDYWGQGTTVTVSS
VL: DIQMTQSPSSLSASVGDRVTITCKASQNVGTNVAWYQQKPGKAPKLLIYSASYRYSGVPSRFSGSGSGTDFTLTISSLQPEDFATYYCHQYYTYPLFTFGQGTKLEIK
notes: Fab format
- Kd [2]: 0.693 nM
- koff [2]: 0.000324 s⁻¹
- kon [2]: 467000 M⁻¹ s⁻¹
- Kd [3]: 586 nM
- koff [3]: 0.0076 s⁻¹
- kon [3]: 12900 M⁻¹ s⁻¹
- Kd [4]: 586 nM

B3: Affinity Matured CDRH-3 construct with CDR-H3 SEQ ID NO:33 (WDFAHYFQTMDY) (Fab, V domains shown)
VH: QVQLVQSGSELKKPGASVKVSCKASGYTFTEFGMNWVRQAPGQGLEWMGWINTKTGEATYVEEFKGRFVFSLDTSVSTAYLQISSLKAEDTAVYYCARWDFAHYFQTMDYWGQGTTVTVSS
VL: DIQMTQSPSSLSASVGDRVTITCKASQNVGTNVAWYQQKPGKAPKLLIYSASYRYSGVPSRFSGSGSGTDFTLTISSLQPEDFATYYCHQYYTYPLFTFGQGTKLEIK
- Kd [4]: 59 nM

B6: H3 Full (5) 19 Fab (hc/wt) (Fab, V domains shown)
VH: QVQLVQSGSELKKPGASVKVSCKASGYTFTEFGMSWVRQAPGQGLEWMGWINTKTGEATYVEEFKGRFVFSLDTSVSTAYLQISSLKAEDTAVYYCARWDAFEYVKALDYWGQGTTVTVSS
VL: DIQMTQSPSSLSASVGDRVTITCKASQNVGTNVAWYQQKPGKAPKLLIYSASYRYSGVPSRFSGSGSGTDFTLTISSLQPEDFATYYCHQYYTYPLFTFGQGTKLEIK
- Kd [2]: 0.19 nM
- koff [2]: 0.000175 s⁻¹
- kon [2]: 902000 M⁻¹ s⁻¹

Continued, values first:

- EC50 (read off the curve) [1]: ~0.6 µg/mL
B1: CH7A / CL1A rH11 antibody (parent heavy chain with affinity matured light chain) (antibody, human IgG1, V domains shown)
VH: QVQLVQSGSELKKPGASVKVSCKASGYTFTEFGMNWVRQAPGQGLEWMGWINTKTGEATYVEEFKGRFVFSLDTSVSTAYLQISSLKAEDTAVYYCARWDFYDYVEAMDYWGQGTTVTVSS
VL: DIQMTQSPSSLSASVGDRVTITCKASQTVSANVAWYQQKPGKAPKLLIYLASYRYRGVPSRFSGSGSGTDFTLTISSLQPEDFATYYCHQYYTYPLFTFGQGTKLEIKR
notes: also called CLA1 rH11

- Kd [4]: 69 nM
B4: Affinity Matured CDRH-3 construct with CDR-H3 SEQ ID NO:35 (WDFAYYLEAMDY) (Fab, V domains shown)
VH: QVQLVQSGSELKKPGASVKVSCKASGYTFTEFGMNWVRQAPGQGLEWMGWINTKTGEATYVEEFKGRFVFSLDTSVSTAYLQISSLKAEDTAVYYCARWDFAYYLEAMDYWGQGTTITVSS
VL: DIQMTQSPSSLSASVGDRVTITCKASQNVGTNVAWYQQKPGKAPKLLIYSASYRYSGVPSRFSGSGSGTDFTLTISSLQPEDFATYYCHQYYTYPLFTFGQGTKLEIK

- Kd [4]: 44 nM
B5: Affinity Matured CDRH-3 construct with CDR-H3 SEQ ID NO:34 (WDFAYYFQTMDY) (Fab, V domains shown)
VH: QVQLVQSGSELKKPGASVKVSCKASGYTFTEFGMNWVRQAPGQGLEWMGWINTKTGEATYVEEFKGRFVFSLDTSVSTAYLQISSLKAEDTAVYYCARWDFAYYFQTMDYWGQGTTVTVSS
VL: DIQMTQSPSSLSASVGDRVTITCKASQNVGTNVAWYQQKPGKAPKLLIYSASYRYSGVPSRFSGSGSGTDFTLTISSLQPEDFATYYCHQYYTYPLFTFGQGTKLEIK

- EC50 (read off the curve) [5]: ~0.7 µg/mL
B7: humanized PR1A3 antibody comprising heavy chain variable region construct CH7A and light chain variable region construct CL1A (antibody, V domains shown)
VH: QVQLVQSGSELKKPGASVKVSCKASGYTFTEFGMNWVRQAPGQGLEWMGWINTKTGEATYVEEFKGRFVFSLDTSVSTAYLQISSLKAEDTAVYYCARWDFYDYVEAMDYWGQGTTVTVSS
VL: DIQMTQSPSSLSASVGDRVTITCKASQNVGTNVAWYQQKPGKAPKLLIYSASYRYSGVPSRFSGSGSGTDFTLTISSLQPEDFATYYCHQYYTYPLFTFGQGTKLEIK
notes: also called CH7A CL1A; CH7A, CL1A
